# Reference: US20160333068A1 (BRITISH COLUMBIA CANCER AGENCY BRANCH, published 2016)
# Bridge positions count the residues as written; N and C are the ends. Square brackets hold non-standard residues; d marks the D form. AMBF3 = N,N-dimethylammoniomethyl-trifluoroborate
# Target: T1, sstr3 (UniProt P32745 1-418, limits assumed)
# T1 construct: whole, on cells; Membranes of transfected CHO-K1 cells; The species is printed only for sstr2 (human); also called somatostatin receptor subtype 3
# Assay: competitive filtration binding assay, displacement of [^125I]-Tyr-somatostatin-14 (0.2 nM) from CHO-K1 membranes
# Procedure: Membranes from Chinese hamster ovary K1 cells transfected with sstr1, sstr2, sstr3, sstr5, and [¹²⁵I]-Tyr-somatostatin-14 were obtained from PerkinElmer. A standard filtration binding assay was performed in 96-well plates (MultiScreen; Millipore) to determine the binding affinities (inhibition constant, or Kᵢ) of AMBF₃-TATE against different receptor subtypes. Briefly, membranes ([…]) were incubated with the ¹²⁵I-labelled standard at a concentration of 0.05 nM for sstr2 or 0.2 nM for other subtypes. Increasing concentrations of AMBF₃-TATE were added to the wells in buffer (25 mM N-2-hydroxyethylpiperazine-N-2-ethanesulfonic acid, pH 7.4; 10 mM MgCl₂; 1 mM CaCl₂; and 0.5% bovine serum albumin). After incubation (37° C., 1 h), the wells were aspirated and washed 8 times with 50 mM ice-cold buffer (Tris-HCl, pH 7.4) over grade GF/B filters. The filters were removed and counted by a γ counter (Cobra II; Packard). Data were fitted to a 1-site competition model (GraphPad Prism 6.1 software) to calculate Kᵢ.
# T1 sequence (P32745 whole entry): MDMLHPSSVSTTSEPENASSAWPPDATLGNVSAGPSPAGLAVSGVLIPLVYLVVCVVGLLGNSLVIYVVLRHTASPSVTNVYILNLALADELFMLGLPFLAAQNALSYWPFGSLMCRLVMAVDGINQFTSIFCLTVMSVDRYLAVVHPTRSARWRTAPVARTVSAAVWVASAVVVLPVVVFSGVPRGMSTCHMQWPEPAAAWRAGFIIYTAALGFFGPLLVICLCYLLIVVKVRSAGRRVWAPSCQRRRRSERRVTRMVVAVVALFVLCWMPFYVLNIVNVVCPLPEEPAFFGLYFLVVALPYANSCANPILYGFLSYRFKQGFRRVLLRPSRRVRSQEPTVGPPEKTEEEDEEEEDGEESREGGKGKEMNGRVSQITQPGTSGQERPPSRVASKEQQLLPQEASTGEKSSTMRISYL
binder,measurement,value
"{AMBF3-triazolylacetyl}-[dF]CY[dW]KTCT-OH (disulfide 2-7, Free C-terminal acid (octreotate); also called ^19F-AMBF3-TATE; ^18F-AMBF3-TATE) [AMBF3-TATE]",Ki,28.4 nM
